Reference: paper PMC4130213

Assays:
[1] = tested on: CovR (unphosphorylated) (Streptococcus pyogenes (M6 serotype, JRS4?)); test: DNase I footprinting; details: not given in the material (DNase I protection assay details absent)
[2] = tested on: CovR-P (phosphorylated CovR) (Streptococcus pyogenes (M6 serotype, JRS4?)); test: DNase I footprinting; details: not given in the material (DNase I protection assay details absent)

## Pska wild type
[1]
  binding signal: 3 µM
[2]
  binding signal: 0.25 µM
